Data on one molecule can be found in patent publication US20250340646A1 (ELPIS BIOPHARMACEUTICALS, published 2025).

Like-named read-outs stand apart in the source and are kept apart here.

The Kd is the equilibrium constant for the complex coming apart. For orientation: koff means the rate constant with which the complex falls apart. For orientation: kon means the rate constant with which the complex forms. The EC50 is the concentration at which the effect is half-maximal. For orientation: IC50 means the concentration that gives 50% inhibition. Low readings indicate higher potency, high ones lower potency.

Assay [1] has as its target T1, human PD-L1-HIS tagged recombinant protein (human, UniProt Q9NZQ7 19-238).
T1 construct: also called hPD-L1-HIS; PD-L1 HIS tagged protein
As to the kind of experiment: SPR, Protein A capture, PD-L1-HIS analyte. (Surface plasmon resonance follows binding to a sensor surface in real time, without labels.)

In assay [2] the target is T2, recombinant His-tagged human IL-2Rα (human, UniProt P01589 22-213, limits assumed).
T2 construct: also called IL-2Rα-HIS; CD25
T2 sequence (looked up): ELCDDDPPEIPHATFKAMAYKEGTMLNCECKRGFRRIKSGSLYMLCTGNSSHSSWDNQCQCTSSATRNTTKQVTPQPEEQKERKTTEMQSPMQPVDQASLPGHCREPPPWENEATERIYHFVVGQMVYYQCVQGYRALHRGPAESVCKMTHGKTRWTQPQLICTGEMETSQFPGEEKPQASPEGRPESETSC
Kind of assay: ELISA, coated His-tagged human IL-2Rα, OD 450 nm. The protocol:
(§1) For monovalent IL-2 Fc-fusion proteins, recombinant His-tagged human IL-2Rα and IL-2Rβ were added in 25 μL of 1×PBS to wells of 384-well plate and incubated overnight at 4° C. to coat the plates. Plates were washed three times with 0.05% Tween20/1×PBS. Plates were blocked with 100 μL of SuperBlock for 1 hr at RT and then washed 3 times with 0.05% Tween20/1×PBS. IL-2 mutants were diluted in 0.05% Tween 20/1×PBS from 1000 nM to 0 nM and added to plates for 2 hrs at room temperature. Plates were then washed 6 times with 0.05% Tween20/1×PBS. Anti-HisTag-HRP was diluted 1:5000 in 0.05% Tween20/1×PBS and added to plates for 1 hr at RT. Plates were then washed 6 times with 0.05% Tween 20/1×PBS, and TMB was added to develop blue color. Reactions were stopped with 2N […] and light absorbance at 450 nm was read on a BioTek plate reader. Absorbance versus IL-2 concentration is graphed for human IL-2Rα and IL-2Rβ.
On the technique in general: ELISA stands for enzyme-linked immunosorbent assay.

The target in assay [3] is PD-L1 on PD-L1 aAPC/CHOK1 cells (Promega J1250). As to the kind of experiment: cell-based or functional assay.
The target of assay [4] is T3, recombinant His-tagged human IL-2Rβ (human, UniProt P14784 27-240, limits assumed).
T3 construct: also called IL-2Rβ-HIS; IL-15Rβ-HIS
T3 sequence (looked up): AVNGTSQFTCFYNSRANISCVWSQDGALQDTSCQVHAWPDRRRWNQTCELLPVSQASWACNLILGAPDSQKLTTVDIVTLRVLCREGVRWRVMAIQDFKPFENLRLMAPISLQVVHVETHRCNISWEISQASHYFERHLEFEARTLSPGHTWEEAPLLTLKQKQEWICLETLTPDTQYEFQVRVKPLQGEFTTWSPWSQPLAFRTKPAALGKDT
Kind of assay: ELISA, coated His-tagged human IL-2Rβ, OD 450 nm. How it is done:
as §1

Assay [5] deals with T4, biotinylated PD-L1 (Homo sapiens (Human), UniProt Q9NZQ7 19-238, biotinylated; site not stated). Kind of assay: ELISA, anti-human Fc capture, biotinylated PD-L1. The protocol:
A 384 well plate was immobilized with anti-human Fc at final concentration of 2 μg/mL in 1×PBS in total volume of 25 μL per well. The plate was incubated overnight at 4° C. followed by blocking with 80 μL of superblock per well for 1 hour. […] In between each step, the plate was washed 3 times with 1×PBST in a plate washer. […] The plate was read at OD450 nm Biotek plate reader and the binding correlation was plotted with Prism 8.1 software.

The target in assay [6] is T5, PD-L1 biotinylated (PD-1/PD-L1 TR-FRET assay kit, BPS 72038) (Homo sapiens (Human), UniProt Q9NZQ7 19-238, biotinylated; site not stated).
T5 construct: Kit reagent
Kind of assay: HTRF competition, competitor PD-1-Eu. The protocol: (§2) Briefly, 1× Immuno buffer 1 was made. […] For each well in 384-well plate, serial diluted scFvs and regents were added according to manufacturer's recommended volume. Samples were incubated at room temperature for 1.5 hours then the fluorescent intensity was read with Biotek Neo2 plate reader using manufacture's instrument setting for the assay.
In general terms: Time-resolved FRET reads energy transfer from a long-lived donor to a nearby acceptor.

For assay [7], the target named is T5, PD-L1 biotinylated (PD-1/PD-L1 TR-FRET …). Kind of assay: HTRF competition, competitor PD-1-Eu. How it is done:
as §2
The source holds these as a separate data set.

In assay [8] the target is T1, human PD-L1-HIS tagged recombinant …. As to the kind of experiment: ELISA, coated PD-L1-HIS, anti-hFc HRP. How it is done:
The plate was incubated overnight at 4° C. followed by blocking with 80 μL of superblock per well for 1 hour. […] In between each step, the plate was washed 3 times with 1×PBST in a plate washer. The plate was then developed with 20 μL of TMB substrate for 5 min and stopped by adding 20 μL of 2N sulfuric acid. The plate was read at OD450 nm Biotek plate reader and then plotted in Prism 8.1 software.

Assay [9] concerns the target PD-L1 on PD-L1 aAPC/CHOK1 cells (Promega J1250). As to the kind of experiment: cell-based or functional assay. The source holds these as a separate data set.
For assay [10], the target named is T6, full-length human PD-L1 on K562 cells (human, UniProt Q9NZQ7 19-290).
T6 construct: also called PD-L1/K562; cell surface human PD-L1
Kind of assay: FACS, PD-L1/K562 cells, anti-hFc Alexa Fluor 647. How it is done:
Cells were spun down at 1200 rpm for 5 minutes at 4° C. to remove primary antibodies. Cells were then washed once with 200 μL of full medium per well. […] Samples were spun down at 1200 rpm for 5 minutes at 4° C. and washed twice with 200 μL of 1×PBS per well. Reconstituted samples in 200 μL of 1×PBS and read on Attune NxT cytometer.

For assay [11], the target named is T1, human PD-L1-HIS tagged recombinant …. Kind of assay: SPR, IgG on Protein A, PD-L1-HIS analyte. The protocol: The assay was run with Biacore T200 control software version 2.0. For each cycle, 1 μg/mL of anti-hPD-L1-IgG was captured for 60 seconds at flow rate of 10 μl/min on flow cell 2 in 1×HBSP buffer on Protein A sensor chip. […] The flow cells were then regenerated with Glycine pH 2 for 60 seconds at flow rate of 30 μl/min. […] The specific binding response unit was derived from subtraction of binding to reference flow cell 1 from antibody captured flow cell 2.

In assay [12] the target is T5, PD-L1 biotinylated (PD-1/PD-L1 TR-FRET …). As to the kind of experiment: HTRF competition, competitor PD-1-Eu. How it is done: as §2
This is another data set of the same source.

The target of assay [13] is PD-L1 on PD-L1 aAPC/CHOK1 cells (Promega J1250). Kind of assay: cell-based or functional assay. This is another data set of the same source.
Assay [14] addresses T4, biotinylated PD-L1. As to the kind of experiment: ELISA as described in Example 7 (value equals Table 17).

B1: anti-PD-L1 IgG1 antibody EP205/EP206 (2019EP69-F03) (antibody, V domains shown)
VH: QVQLVQSGAEVKKPGSSVKVSCKASGGTFSSYAISWVRQAPGQGLEWMGGIIPIFGTANYAQKFQGRVTITADESTSTAYMELSSLRSEDTAVYYCARDKWYGSAWRGDYWGQGTLVTVSS
VL: QSVLTQPPSASGTPGQRVTISCSGSYSNIGSNFVNWYQQLPGTAPKLLIHFNNQRPSGVPDRFSGSRSGTSASLAISGLQSEDEADYFCSTWDDSLKGPIFGGGTKLTVLG
notes: also called EP206/EP205
For the molecule B1, the Kd in assay [1] and in assay [11] was 0.363 nM throughout. Further, in assay [1], the off-rate (koff) turned out to be 0.000347 s⁻¹. Also, in assay [1], the kon was 956000 M⁻¹ s⁻¹. Besides, the binding result in [2] and in assay [4] was “no binding (tested: LOG(IL-2(nM)) about 1.8 (about 70 nM))” throughout. The “NFAT reporter EC50” value in assay [3] and in [13] was 0.549 nM each time. Moreover, the concentration giving a half-maximal response (EC50) with biotinylated PD-L1 [5] turned out to be 0.26 nM; in assay [8] it was 0.164 nM; in [10] it was 0.00668 nM; with biotinylated PD-L1 [14], 0.164 nM. The IC50 in [6], in assay [7] and in [12] was 128 nM in each case. Moreover, in assay [9], the “Jurkat Reporter assay EC50” value turned out to be 0.55 nM.
